According to patent US20140031528A1 (NATIONAL UNIVERSITY CORPORATION UNIVERSITY OF TOYAMA, published 2014):

Biological target: human insulin (human, UniProt P01308 25-54; P01308 90-110)
Assay: ELISA, recombinant antibodies from 293FT culture
Method: The full lengths of the guinea pig γ chain, κ chain, and λ chain gene expression units amplified in the above experiments were genetically introduced into 293FT cells and the cells were cultured for two days to bring about the secretion of recombinant guinea pig antibodies in the cell culture. The ability to bind human insulin of the recombinant guinea pig monoclonal antibodies obtained from the antigen specific and nonspecific plasma cells was examined by the ELISA method (FIG. 9).

human insulin, sequence (P01308 25-54 limits assumed, chain 1 of 2): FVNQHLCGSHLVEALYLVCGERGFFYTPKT
human insulin, sequence (P01308 90-110 limits assumed, chain 2 of 2): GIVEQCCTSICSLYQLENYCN

B1: guinea pig monoclonal antibody to human insulin, Sample No. 5 (antibody, V domains shown)
VH: QVQLQESGPGLVKPSETLSLTCKVSGFSLMDYSVSWIRQAPGEGLEWIGVIWSSGSTDYNSTFKSRVGMSRDTSKSQVSITLRSLSSEDTAVYYCARAQYFDVWGAGTLVTVSS
VL: QIVLTQSPASLAASPGQKVTITCTASSSVNNNFFHWYQQKPGASPTLLIYRTSRLASGVPARFSGSGSGTSYSLTISSMEGEDVATYYCLQSNSYTFGAGTRLEIK
notes: Recombinant guinea pig IgG (γ/κ) secreted by 293FT cells
B1: binds.
